Results as given in PMC12209456, “Serine/threonine/tyrosine kinase 1 drives pancreatic carcinogenesis via GSK3β sequestration-mediated Wnt/β-catenin pathway hyperactivation” (Signal Transduction and Targeted Therapy, 2025).

B1: EGF: EGF (100 ng/mL) treatment (protein, UniProt P01133 23-1207, looked up)
Pro-epidermal growth factor: PQHWSCPEGTLAGNGNSTCVGPAPFLIFSHGNSIFRIDTEGTNYEQLVVDAGVSVIMDFHYNEKRIYWVDLERQLLQRVFLNGSRQERVCNIEKNVSGMAINWINEEVIWSNQQEGIITVTDMKGNNSHILLSALKYPANVAVDPVERFIFWSSEVAGSLYRADLDGVGVKALLETSEKITAVSLDVLDKRLFWIQYNREGSNSLICSCDYDGGSVHISKHPTQHNLFAMSLFGDRIFYSTWKMKTIWIANKHTGKDMVRINLHSSFVPLGELKVVHPLAQPKAEDDTWEPEQKLCKLRKGNCSSTVCGQDLQSHLCMCAEGYALSRDRKYCEDVNECAFWNHGCTLGCKNTPGSYYCTCPVGFVLLPDGKRCHQLVSCPRNVSECSHDCVLTSEGPLCFCPEGSVLERDGKTCSGCSSPDNGGCSQLCVPLSPVSWECDCFPGYDLQLDEKSCAASGPQPFLLFANSQDIRHMHFDGTDYGTLLSQQMGMVYALDHDPVENKIYFAHTALKWIERANMDGSQRERLIEEGVDVPEGLAVDWIGRRFYWTDRGKSLIGRSDLNGKRSKIITKENISQPRGIAVHPMAKRLFWTDTGINPRIESSSLQGLGRLVIASSDLIWPSGITIDFLTDKLYWCDAKQSVIEMANLDGSKRRRLTQNDVGHPFAVAVFEDYVWFSDWAMPSVMRVNKRTGKDRVRLQGSMLKPSSLVVVHPLAKPGADPCLYQNGGCEHICKKRLGTAWCSCREGFMKASDGKTCLALDGHQLLAGGEVDLKNQVTPLDILSKTRVSEDNITESQHMLVAEIMVSDQDDCAPVGCSMYARCISEGEDATCQCLKGFAGDGKLCSDIDECEMGVPVCPPASSKCINTEGGYVCRCSEGYQGDGIHCLDIDECQLGEHSCGENASCTNTEGGYTCMCAGRLSEPGLICPDSTPPPHLREDDHHYSVRNSDSECPLSHDGYCLHDGVCMYIEALDKYACNCVVGYIGERCQYRDLKWWELRHAGHGQQQKVIVVAVCVVVLVMLLLLSLWGAHYYRTQKLLSKNPKNPYEESSRDVRSRRPADTEDGMSSCPQPWFVVIKEHQDLKNGGQPVAGEDGQAADGSMQPTSWRQEPQLCGMGTEQGCWIPVSSDKGSCPQVMERSFHMPSYGTQTLEGGVEKPHSLLSANPLWQQRALDPPHQMELTQ
modifications: Pro-epidermal growth factor
notes: EGF (100 ng/mL) treatment
B2: Wnt3a: Wnt3a, R&D systems (5036-WN) (protein, UniProt P56704 19-352, looked up)
Protein Wnt-3a: SYPIWWSLAVGPQYSSLGSQPILCASIPGLVPKQLRFCRNYVEIMPSVAEGIKIGIQECQHQFRGRRWNCTTVHDSLAIFGPVLDKATRESAFVHAIASAGVAFAVTRSCAEGTAAICGCSSRHQGSPGKGWKWGGCSEDIEFGGMVSREFADARENRPDARSAMNRHNNEAGRQAIASHMHLKCKCHGLSGSCEVKTCWWSQPDFRAIGDFLKDKYDSASEMVVEKHRESRGWVETLRPRYTYFKVPTERDLVYYEASPNFCEPNPETGSFGTRDRTCNVSSHGIDGCDLLCCGRGHNARAERRREKCRCVFHWCCYVSCQECTRVYDVHTCK

Legend:
[1] = tested on: β-catenin/TCF4 transcriptional activity; test: 7TGC reporter assay; format: cell-based, human; conditions: PANC-1 cells, EGF (100 ng/mL) or CQ (100 μM)
Text: The PCR products of STYK1, GSK3β, and Axin1 were cloned into pcDNA3.1-3×HA, pCMV-3×Flag (Sigma, E4401), and pCMV-mCherry (constructed by our lab) respectively. […] To make STYK1, β-catenin, GSK3β, or BLK mutants or truncations, a series of forwarding primers harboring the desired mutations were used in PCRs. The nucleotide sequences of all constructs were confirmed by DNA sequencing. […] DNA and interference RNA were transfected with Lipofectamine 3000 (Invitrogen, L3000015) according to the manufacturer’s instructions. shRNA for STYK1 #1: 5ʹ- [sequence] -3ʹ. #2: 5ʹ- [sequence] -3ʹ. siRNA for STYK1 was 5ʹ- [sequence] -3ʹ. siRNA for β-catenin was 5ʹ- [sequence] -3ʹ. siRNA for HRS was 5ʹ- [sequence] -3ʹ, siRNA for VPS24 was 5ʹ- [sequence] -3ʹ.

CyclinD1/Axin2/C-myc = test: Wnt target gene expression (western blot, qRT-PCR); format: cell-based, human; conditions: PANC-1 cells, EGF (100 ng/mL) or CQ (100 μM)
Method: Whole-cell extracts were prepared with 1% sodium dodecyl sulfate lysis buffer with freshly added 1% proteinase inhibitor cocktail (Biomake, B14001) and 1 mM phenylmethylsulfonyl fluoride (PMSF, MCE, HY-B0496). Western blot was performed as described previously.[20]
Total RNA was extracted from cultured pancreatic cancer cells using Trizol reagent (Invitrogen) according to the manufacturer’s protocol. qRT-PCR was performed as previously described.^3 The mRNA expression level for each sample was normalized to the expression of GAPDH using the 2 ^-ΔΔct method^4 with three biological replicates of comparative qRT-PCR. The following primer sequences were used for qRT-PCR: GAPDH, (forward) 5′- […] -3′ and (reverse) 5′- […] -3′; CyclinD1, (forward) 5′- […] -3′ and (reverse) 5′- […] -3′; C-myc, (forward) 5′- […] -3′ and (reverse) 5′- […] -3′; Axin2, (forward) 5′- […] -3′ and (reverse) 5′- […] -3′; STYK1, (forward) 5′- […] -3′ and (reverse) 5′- […] -3′. Amplification was performed in an ABI Q3 real-time PCR system using a SYBR Green master mix (YEASEN, 11201ES08).

GSK3β in MVBs = test: Co-localization of GSK3β with Rab7 and CD63 (immunofluorescence); format: cell-based
Method: (§1) PANC-1, AsPC-1, HEK293T, or HeLa cells were ﬁxed with 4% formaldehyde for 10-15 min and then blocked with 3% BSA and 0.1% Triton X-100 in PBS for 20 min at room temperature. Immunostaining was performed using the indicated antibody. Nuclei were counterstained with DAPI. Images were taken with a Leica Inverted Confocal SP8 (Leica, Germany).

[2] = tested on: GSK3β sequestration in Rab5+ endosomes, PANC-1 cells; test: Wnt-induced GSK3β within Rab5+ endosomes, PANC-1 cells; format: cell-based, human; conditions: Rab5 Q79L, n = 10
Method: as §1

| Molecule | Wnt signaling in the 7TGC system [1] | STYK1-mediated alteration of the Wnt/β-catenin target genes C-myc, Axin2 (CyclinD1/Axin2/C-myc) | separation of GSK3β into MVBs (GSK3β in MVBs; Wnt activation, discussion summary) | co-localization of GSK3β with Rab7 and CD63 (GSK3β in MVBs; under Wnt3a treatment) | amount of GSK3β within Rab5+ endosomes [2] |
| --- | --- | --- | --- | --- | --- |
| B1 | decreased Wnt signaling in the 7TGC system | down-regulated STYK1-mediated alteration of the Wnt/β-catenin target genes C-myc, Axin2 |  |  |  |
| B2 |  |  | supports the separation of GSK3β into MVBs | detectable co-localization with Rab7 and CD63 | remarkably increased the amount of GSK3β within Rab5^+ endosomes |
